US20030148956A1 (PROCTER AND GAMBLE, published 2003)
Ends that are not written are not given here.

T1: CRF2R
T1 sequence (Q13324 whole entry, species assumed, looked up): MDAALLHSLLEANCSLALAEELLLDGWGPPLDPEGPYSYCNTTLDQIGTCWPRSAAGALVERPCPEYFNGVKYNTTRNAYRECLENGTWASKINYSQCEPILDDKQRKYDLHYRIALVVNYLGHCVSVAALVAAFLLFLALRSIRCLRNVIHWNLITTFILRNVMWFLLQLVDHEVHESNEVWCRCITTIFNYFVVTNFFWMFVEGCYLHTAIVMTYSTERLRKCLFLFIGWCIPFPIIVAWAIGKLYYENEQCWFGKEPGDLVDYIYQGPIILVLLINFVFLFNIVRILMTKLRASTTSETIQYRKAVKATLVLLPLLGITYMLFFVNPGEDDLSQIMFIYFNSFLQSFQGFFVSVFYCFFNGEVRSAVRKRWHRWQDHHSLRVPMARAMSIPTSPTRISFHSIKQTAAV

B1: SEQ ID NO 1 (peptide)
peptide: IVLSLDVPIGLLQELLEMARAEQLAQQAHSNRKLMEII-NH2
B2: SEQ ID NO 81 (peptide)
peptide: ZGPPISIDLPLYLLRKMIEIEKQEKEKQQAANNRLLLDT
modifications: C-terminal amide
B3: SEQ ID NO 54 (peptide)
peptide: ZGPPISIDLPDYLLRKMIEIEKQEKEKQQAANNRLLLDTI
modifications: C-terminal amide
B4: SEQ ID NO 59 (peptide)
peptide: ZGPPISIDLPTNLLRKMIEIEKQEKEKQQAANNRLLLDTI
modifications: C-terminal amide
B5: SEQ ID NO 60 (peptide)
peptide: ZGPPISIDLPTRLLRKMIEIEKQEKEKQQAANNRLLLDTI
modifications: C-terminal amide
B6: SEQ ID NO 65 (peptide)
peptide: ZGPPISIDLPRYLLRKMIEIEKQEKEKQQAANNRLLLDTI
modifications: C-terminal amide
B7: SEQ ID NO 84 (peptide)
peptide: ZGPPISIDLPFQLLRKMIEIEKQEKEKQQAANNRLLLDTI
modifications: C-terminal amide
B8: SEQ ID NO 82 (peptide)
peptide: ZGPPISIDLPLELLRKMIEIEKQEKEKQQAANNRLLLDTI
modifications: C-terminal amide
B9: SEQ ID NO 75 (peptide)
peptide: ZGPPISIDLPIGLLRKMIEIEKQEKEKQQAANNRLLLDTI
modifications: C-terminal amide
B10: SEQ ID NO 74 (peptide)
peptide: ZGPPISIDLPTHLLRKMIEIEKQEKEKQQAANNRLLLDTI
modifications: C-terminal amide
B11: SEQ ID NO 78 (peptide)
peptide: ZGPPISIDLPIQLLRKMIEIEKQEKEKQQAANNRLLLDTI
modifications: C-terminal amide
B12: SEQ ID NO 68 (peptide)
peptide: ZGPPISIDLPFGLLRKMIEIEKQEKEKQQAANNRLLLDTI
modifications: C-terminal amide
B13: SEQ ID NO 56 (peptide)
peptide: ZGPPISIDLPSYLLRKMIEIEKQEKEKQQAANNRLLLDTI
modifications: C-terminal amide
B14: SEQ ID NO 69 (peptide)
peptide: ZGPPISIDLPFHLLRKMIEIEKQEKEKQQAANNRLLLDTI
modifications: C-terminal amide
B15: SEQ ID NO 70 (peptide)
peptide: ZGPPISIDLPTYLLRKMIEIEKQEKEKQQAANNRLLLDTI
modifications: C-terminal amide

Tests used:
CRF2R = target: T1, CRF2R; assay: cell-based or functional assay
CRF1R = assay: cell-based or functional assay

| Binder | CRF2R EC50 (CRF2R) | CRF2R Emax (CRF2R) | CRF1R EC50 (CRF1R) | CRF1R Emax (CRF1R) |
| --- | --- | --- | --- | --- |
| B1 | 31.5 nM | 10% | 783 nM | 64% |
| B2 | 4.3 nM | 73% | 60.9 nM | 81% |
| B3 | 100 nM | 11% | 1000 nM | 10% |
| B4 | > 100 nM | 27% | > 100 nM | 10% |
| B5 | > 100 nM | 44% | > 100 nM | 8% |
| B6 | 67.9 nM | 64% | > 100 nM | 16% |
| B7 | 1.77 nM | 100% | 82.2 nM | 99% |
| B8 | 10.9 nM | 90% | 96.2 nM | 85% |
| B9 | > 100 nM | 52% | > 100 nM | 5% |
| B10 | 55 nM | 100% | > 100 nM | 7% |
| B11 | 24.6 nM | 78% | > 100 nM | 6% |
| B12 | 38.5 nM | 74% | > 100 nM | 33% |
| B13 | 50.4 nM | 87% | > 100 nM | 14% |
| B14 | 5.85 nM | 81% | 34.5 nM | 88% |
| B15 | 18.2 nM | 82% | > 100 nM | 8% |
